Patent US20030092616A1, “STAT6 activation gene” (priority 2001, published 2003)

B1: 397 (nucleic acid, listed as Homo sapiens)
chain: ACAGATGAAACTTTTTAGGTCTCAAAGAAATCTTTACATTTCTGGATTTTCCCTATTTTTTTGGCTAGTTTTGAGACGTCTGGTTACGCTTATTACTCAACTGGCAAAAGAACTGTCAAACAAAGGTGTACTTAAAACTCAAGCAGAAAATACTAACAAGGCTGCCAAAAAATTTATGGAAGAAAACGAAAAACTAAAAAGGATTTTGAAAAGCCATGGTAAAGATGAAGAATGTGTTTTGGAAGCAGAAAATAAAAAACTAGTAGAAGACCAGGAGAAACTGAAAACTGAATTAAGGAAGACTTCAGATGCCCTTTCTAAGGCACAAAATGATGTGATGGAAATGAAGATGCAGTCAGAGAGACTTTCGAAAGAATATGATCAACTCCTGAAAGAACACTCTGAACTTCAGGATCGTTTAGAAAGAGGCAACAAGAAAAGACTGTGAACTTTATAAAAGACACTTGCAATATACTGTGTCAAAATGATAATTTTGTTATGTTAGCCTCTAGAAAATTTAAGTTCAGAAAAATGCACTATGACCGGTTCGTAATTTTTTTAATGCCACACATAGGTTGTATTGTAATGGCATTATCAAAATATTTGATGATGTTTCAGATATATTGCAAAGTCTGTATTCCAGCTCTTAAGAAAAATATAAGCATGTTAAATACCATATTTACATATTGATAATGTCATTGGTATATGGTGGCTGTTTACCAATAAAAGGAAAAAATTCATT
modifications: CDS (5)..(445)
B2: 117 (nucleic acid, listed as Homo sapiens)
chain: GAGCGGCGATGCCGGGGCGGCGGCGCCCGAGTCCGGAGCCCGAGCCCGAAGAGGAGCCGCCCCGGCCCCGCGCCCCCCCGGGAGCTCCGGGCCCTGGGCCTGGTTCGGGAGCCCCCGGCAGCCAAGAGGAGGAGGAGGAGCCGGGACTGGTCGAGGGTGACCCGGGGGACGGCGCCATTGAGGACCCGGAGCTGGAAGCTATCAAAGCTCGAGTCAGGGAGATGGAGGAAGAAGCTGAGAAGCTAAAGGAGCTACAGAACGAGGTAGAGAAGCAGATGAATATGAGTCCACCTCCAGGCAATGCTGGCCCGGTGATCATGTCCATTGAGGAGAAGATGGAGGCTGATGCCCGTTCCATCTATGTTGGCAATGTGGACTATGGTGCAACAGCAGAAGAGCTGGAAGCTCACTTTCATGGCTGTGGTTCAGTCAACCGTGTTACCATACTGTGTGACAAATTTAGTGGCCATCCCAAAGGGTTTGCGTATATAGAGTTCTCAGACAAAGAGTCAGTGAGGACTTCCTTGGCCTTAGATGAGTCCCTATTTAGAGGAAGGCAAATCAAGGTGATCCCAAAACGAACCAACAGACCAGGCATCAGCACAACAGACCGGGGTTTTCCACGAGCCCGCTACCGCGCCCGGACCACCAACTACAACAGCTCCCGCTCTCGATTCTACAGTGGTTTTAACAGCAGGCCCCGGGGTCGCGTCTACAGGGGCCGGGCTAGAGCGACATCATGGTATTCCCCTTACTAAAAAAAGTGTGTATTAGGAGGAGAGAGAGGAAAAAAAGAGGAAAGAAGGAAAAAAAAAAGAATTAAAAAAAAAAAAAAGAAAAAC
modifications: CDS (9)..(755)
B3: 6 (nucleic acid, listed as Homo sapiens)
chain: TAAAAGAAGAGAAGAGGCTAAAGAAGAAAAGAAGAAAATCAACTTCTTCTTCAAGTGTTTCTTCTGCTGATGAATCAGTGTCTTCATCATCATCCTCTTCCTCTTCTGGTCACAAAAGGCATAAGAAACATAAGAGGAACCGTTCAGAGTCTTCTCGCAGTTCCAGAAGGCATTCATCTAGGGCATCCTCAAATCAGATAGATCAGAATAGGAAAGATGAGTGCTACCCAGTTCCAGCTAATACTTCAGCATCTTTTCTTAACCATAAACAAGAAGTGGAGAAACTACTGGGGAAGCAGGATAGGTTACAGTATGAAAAGACACAGATAAAAGAGAAAGATAGATGCCCTCTCTCTTCATCTTCACTTGAAATACCGGATGATTTTGGAGGTAGGTCTGAAGATCCAAGAGATTTTTATAACAGCTATAAAACCCAAGCAGGTAGTAGCAAAACAGAAAAGCCATATAAATCAGAAAGACATTTTTCCAGTAGAAGAAATTCCTCAGATTCCTTCTGTAGGAATTCAGAGGACAAGATTTATGGTTATAGGAGATTTGAAAAGGATATAGAGGGAAGAAAAGAGCACTATAGAAGGTGGGAACCAGGTTCTGTGAGGCATTCTACCTCACCAGCAAGCTCAGAATACTCTTGGAAGTCAGTTGAGAAATACAAAAAATACGCTCACTCTGGATCACGTGATTTCAGTAGACATGAGCAAAGATACCGTTTAAATACAAATCAAGGAGAATATGAAAGAGAGGACAATTATGGGGAGGATATCAAAACAGAGGTTCCAGAAGAAGATGCACTAAGTAGCAAAGAACACTCAGAAAGCAGTGTTAAGAAAAATTTACCTCAGAATTTACTGAATATATTTAATCAGATAGCTGAATTTGAAAAAGAAAAAGGAAATAAGTCAAAAAATTAATACACCAAGGATATCGGCACCATTACACAAAATGCCATTAAGTGAAGTTTTTGGTTGTATTAGTCATAACAGTTGAGTGCAGAAATCTCTGCTTCTAAAATTATTTGTAGAGATTACAGGAAACAAATGCTTTTAAGTAAGTTTTTCTCAAATTTTGTTTCAGTTCTAGGTCCCTTGTCACAGCTTGGTTTTTAGACTTTTTATGTATATGTTTATGTACAGTATATTACTCTTGACAGTTTGAATTTCTTCACCTAAAGATAATTCTCTGAAAGTACTGTTTCTTCATTCTATTGCGGTATATGAGAATTCCTGGGTGCATCTTATTCTGCTGTTTGAGAGAAAAATTTGTGCATTGAACACTTGGATCATTTTTATAAAAATTAATTTCATTTTCTTTTCTGTTAAATTAAAAATCGTCAGCTTTTGAAAGAT
modifications: CDS (379)..(567)
B4: 413 (nucleic acid, listed as Homo sapiens)
chain: GAGGAGGCCGCGCCAGTGACAGCGATGGCGGCGGAGTCGGCGCTCCAAGTTGTGGAGAAGCTGCAGGCGCGCCTGGCCGCGAACCCGGACCCTAAGAAGCTATTGAAATATTTGAAGAAACTCTCCACCCTGCCTATTACAGTAGACATTCTTGCGGAGACTGGGGTTGGGAAAACAGTAAATAGCTTGCGAAAACACGAGCATGTTGGAAGCTTTGCCAGGGACCTAGTGGCCCAGTGGAAGAAGCTGGTTCCTGTGGAACGAAATGCTGAGCCTGATGAACAGGACTTTGAGAAGAGCAATTCCCGAAAGCGCCCTCGGGATGCCCTGCAGAAGGAGGAGGAGATGGAGGGGGACTACCAAGAAACCTGGAAAGCCACGGGGAGCCGATCCTATAGCCCTGACCACAGGCAGAAGAAACATAGGAAACTCTCGGAGCTCGAGAGACCTCACAAAGTGTCTCACGGTCATGAGAGGAGAGATGAGAGAAAGAGGTGTCACAGAATGTCACCAACTTACTCTTCAGACCCTGAGTCTTCTGATTATGGCCATGTTCAATCCCCTCCATCTTGTACCAGTCCTCATCAGATGTACGTCGACCACTACAGATCCCTGGAGGAGGACCAGGAGCCCATTGTTTCACACCAGAAGCCTGGGAAAGGCCACAGCAATGCCTTTCAGGACAGACTCGGGGCCAGCCAAGAACGACACCTGGGTGAACCCCATGGGAAAGGGGTTGTGAGTCAAAACAAGGAGCACAAATCTTCCCACAAGGACAAACGCCCCGTGGATGCCAAGAGTGATGAGAAGGCCTCTGTGGTGAGCAGAGAGAAATCACACAAGGCCCTCTCCAAAGAGGAGCCGGCCTATGATGGCCCAAGCACCAGCAGTGCCCACTTGGCACCAGTGGTCAGCAGCACTGTTTCCTATGATCCTAGGAAACCCACTGTGAAGAAAATTGCCCCAATGATGGCCAAGACAATTAAAGCTTTCAAGAACAGATTCTCCCGACGATAAACTGAGGACTTGCCTTGGAAATGGAATCTGGGGAGGCAGGAATACAAGGACAGTGGGGGTTGGGGAATGGAATTCTACAGGAGACTGGAGTCTTGCTTTGTGGATCCTTTTGGTCTCCGAGTCCTGCAGTCTGCAGGTGCTGCCCCTGGGAACCTGCGTGCCACAGCCCCGCCTCCCTGCCTGGAGCACACTTTAGAATTCTGAAGATGTGAAGCCTCTGTCTCACTGAGGATTTTAAAGGTCAATTATACTTTTGTTGTTCATTAGCATCTTTGTAAACTATAAGACGTAGTTTTAATTAATAAATATTGCCCCCAGATTGTATTT
modifications: CDS (25)..(1014)
B5: 115 (nucleic acid, listed as Homo sapiens)
chain: GTTTTCCGCCGTCCGTCCGGGCGGGCGGGCGCAGAGTCCCGCGGGCGGCGCGGAAGCGGCGGCGGCGCGGCCGGGGCAGCCATGTCGCCATTGTCTGCGGCGCGGGCGGCCCTGCGGGTCTACGCGGTAGGCGCCGCGGTGATCCTGGCGCAGCTGCTGCGGCGCTGCCGCGGGGGCTTCCTGGAGCCAGTTTTCCCCCCACGACCTGACCGTGTCGCTATAGTGACGGGAGGGACAGATGGCATTGGCTATTCTACAGCGAAGCATCTGGCGAGACTTGGCATGCATGTTATCATAGCTGGAAATAATGACAGCAAAGCCAAACAAGTTGTAAGCAAAATAAAAGAAGAAACCTTGAACGACAAAGTGGAATTTTTATACTGTGACTTGGCTTCCATGACTTCCATCCGGCAGTTTGTGCAGAAGTTCAAGATGAAGAAGATTCCTCTCCATGTCCTGATCAACAATGCTGGGGTGATGATGGTCCCTCAGAGGAAAACCAGAGATGGATTCGAAGAACATTTCGGCCTGAACTACCTAGGGCACTTCCTGCTGACCAACCTTCTCTTGGATACGCTGAAAGAGTCTGGGTCCCCTGGCCACAGTGCGAGGGTGGTCACCGTCTCCTCTGCCACCCATTACGTCGCTGAGCTGAACATGGATGACCTTCAGAGCAGTGCCTGCTACTCACCCCACGCAGCCTACGCCCAGAGCAAGCTGGCCCTTGTCCTGTTCACCTACCACCTCCAGCGGCTGCTGGCGGCTGAGGGAAGCCACGTGACCGCCAACGTGGTGGACCCCGGGGTGGTCAACACGGACCTCTACAAGCACGTGTTCTGGGCCACCCGTCTGGCGAAGAAGCTTCTCGGCTGGTTGCTTTTCAAGACCCCCGATGAAGGAGCGTGGACTTCCATCTACGCAGCAGTCACCCCAGAGCTGGAAGGAGTTGGTGGCCGTTACCTATACAACGAGAAAGAGACCAAGTCCCTCCACGTCACCTACAACCAGAAACTGCAGCAGCAGCTGTGGTCTAAGAGTTGTGAGATGACTGGGGTCCTTGATGTGACCCTGTGATATCCTGTCTCAGGATAGCTGCTGCCCCAAGAAACACATTGCACCTGCCAATAGCTTGTGGGTCTGTGAAGACTGCGGTGTTTGAGTTTCTCACACCCACCTGCCCACAGGGCTCTGTCCTCTAGTTTTGAGACAGCTGCCTCAACCTCTGCAGAACTTCAAGAAGCCAAATAAACATTTTGGAGGATAATCACCCCAAGTGGTCTTCAACCATAAACTTTGTGATTCCAAAGTGCCCAGTTGTCACAGGTGCCATAAATAATTACATTTTCCAACAT
modifications: CDS (82)..(1071)

These molecules were tested on STAT6 (assay: Screening of full-length cDNA clones for promotion of STAT6 activation (luciferase reporter N4×8-luc)). Conditions: NIH3T3 cells cotransfected with N4×8-luc reporter and cDNA plasmid; 48 h culture, then mouse IL-4 0.5 ng/ml for 6 h.
Type: cell-based
Outline: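 NIH3T3 cells cotransfected with STAT6-responsive N4×8-luc reporter (100 ng) and full-length cDNA, cultured 48 h, then given mouse IL-4 at 0.5 ng/ml final for 6 h. Luciferase activity compared with reporter plus null-vector control.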

| Molecule | Activity = (luciferase activity of the gene of each SEQ ID NO:)/(luciferase activity of pME18S-FL3) |
| --- | --- |
| B1 | 32.6 |
| B2 | 10.1 |
| B3 | 127.5 |
| B4 | 3.4 |
| B5 | 8.6 |
